# According to US20250017964A1, “ENGINEERING OR INDUCING PDGF AND/OR PDGFR SIGNALING TO ENHANCE NK CELL THERAPY” (City of Hope, priority 2021, published 2025):
# B1: IL-12: recombinant human IL-12 p70 (200-12); recombinant murine IL-12 in the mouse NK cell test (protein, UniProt P29459 23-219; P29460 23-328, looked up)
# Interleukin-12 subunit alpha: RNLPVATPDPGMFPCLHHSQNLLRAVSNMLQKARQTLEFYPCTSEEIDHEDITKDKTSTVEACLPLELTKNESCLNSRETSFITNGSCLASRKTSFMMALCLSSIYEDLKMYQVEFKTMNAKLLMDPKRQIFLDQNMLAVIDELMQALNFNSETVPQKSSLEEPDFYKTKIKLCILLHAFRIRAVTIDRVMSYLNAS
# Interleukin-12 subunit beta: IWELKKDVYVVELDWYPDAPGEMVVLTCDTPEEDGITWTLDQSSEVLGSGKTLTIQVKEFGDAGQYTCHKGGEVLSHSLLLLHKKEDGIWSTDILKDQKEPKNKTFLRCEAKNYSGRFTCWWLTTISTDLTFSVKSSRGSSDPQGVTCGAATLSAERVRGDNKEYEYSVECQEDSACPAAEESLPIEVMVDAVHKLKYENYTSSFFIRDIIKPDPPKNLQLKPLKNSRQVEVSWEYPDTWSTPHSYFSLTFCVQVQGKSKREKKDRVFTDKTSATVICRKNASISVRAQDRYYSSSWSEWASVPCS
# modifications: p70 heterodimer
# notes: recombinant human IL-12 p70 (200-12); recombinant murine IL-12 in the mouse NK cell test
# Columns and labels:
# murine NK cells = assay: PDGFRβ expression in murine splenic NK cells, flow cytometry; type: cell-based, mouse; conditions: splenic NK cells of C57BL/6 mice, mouse cytokines 10 ng/ml, 24 h
# Experimental: (§1) FIGS. 7A-7F. […] Data shown are representative histograms and mean fluorescence intensity (MFI) of PDGFRα. […] Expression levels of PDGFRβ were examined by flow cytometry (n=6). […] Data shown are the percentages of PDGFRβ^+ NK cells among total NK cells (n=5). […] Data shown are representative histograms with MFI of PDGFRβ expression. (F) Expression levels of PDGFRβ on NK cells from IL-15 transgenic (Tg) mice were determined by flow cytometry. Data shown are representative histograms. Data represent three independent experiments.
# Mouse NK cells were isolated from the spleen of C57BL/6J or IL-15 transgenic mice, using the EasySep Mouse NK Cell Isolation Kit ([…] Technologies) as previously described (11).
# Cells were stained with the indicated cell-surface markers and/or fixed/permeabilized using a Fixation/Permeabilization Kit (eBioscience). For intracellular staining of IFN-γ and PDGF-D, 5 μg/ml Brefeldin A (BioLegend) was added for 4 h before cell harvest. Intracellular staining of Ki67 was performed by fixing and permeabilizing with the Foxp3/Transcription Factor Staining Kit (eBioscience). […] Data were analyzed using NovoExpress software (Agilent Technologies).
# [1] = system: PDGFRβ expression in human NK cells; assay: Cytokine-induced PDGFRβ expression in purified human NK cells, flow cytometry; type: cell-based; conditions: cytokine 10 ng/ml, 24 h; IL-15 effect dose- and time-dependent
# Description: Data shown are the percentages of PDGFRβ^+ NK cells among total NK cells (n=5). […] Bar=20 μm. […] Data represent three independent experiments. Data shown are means SD.
# as §1
# NK cells were cultured in RPMI 1640 with 10% heat-inactivated FBS (Gibco) at 37° C. in a 5% CO2 humidified incubator. For NK cell transduction, PDGFRB cDNA ORF clone (Cat: HG10514-G) was purchased from Sino Biological and cloned into pCDH-CMV-MCS-EF1-copGFP lentivirus vector (System Biosciences). To produce lentivirus, we transfected the lentiviral transfer vector DNA, together with psPAX2 packaging (Addgene) and pMD2.G envelope plasmid DNA (Addgene), into HEK293T cells; using a polyethyenimine (PEI) transfection protocol (Polysciences). Concentrated lentivirus was added to primary NK cells cultured in RPMI 1640 medium supplemented with 10% FCS and 10 jig/mL polybrene with 2,000×g centrifugation for 2 h. […]
molecule,measurement,setting,value
B1,PDGFRβ expression in murine NK cells,murine NK cells,did not express PDGFRβ
same,PDGFRβ expression,[1],ineffective
